The record followed here is the Human Domainome abundance scans (Beltran et al. 2025).

B1: Dystrobrevin alpha, residues 235 to 294; numbered along this chain, Q9Y4J8 (parent)
chain: ENVFHPVECSYCHSESMMGFRYRCQQCHNYQLCQDCFWRGHAGGSHSNQHQMKEYTSWKS

± gives the uncertainty stated by the source.

The variants in this data set derive from B1. Put plainly: abundance fitness (aPCA) (normalised: wild type 0, dead -1); higher = more abundant; growth selection in yeast, the domain comes from the species named. Conditions: Homo sapiens.
On to ENVFHPVECSYCHSESDMGFRYRCQQCHNYQLCQDCFWRGHAGGSHSNQHQMKEYTSWKS, for which the abundance fitness is 0.059 ± 0.071.
Regarding ENVFHPVECSYCHSESAMGFRYRCQQCHNYQLCQDCFWRGHAGGSHSNQHQMKEYTSWKS, the abundance fitness is -0.037 ± 0.056.
As to ENVFHPVECSYCHSESCMGFRYRCQQCHNYQLCQDCFWRGHAGGSHSNQHQMKEYTSWKS, the abundance fitness was -0.055 ± 0.069.
As to ENVFHPVECSYCHSESSMGFRYRCQQCHNYQLCQDCFWRGHAGGSHSNQHQMKEYTSWKS, the abundance fitness came to 0.109 ± 0.053.
Consider ENVFHPVECSYCHSESTMGFRYRCQQCHNYQLCQDCFWRGHAGGSHSNQHQMKEYTSWKS, for which the abundance fitness was found to be 0.081 ± 0.069.
With ENVFHPVECSYCHSESNMGFRYRCQQCHNYQLCQDCFWRGHAGGSHSNQHQMKEYTSWKS, the abundance fitness amounted to 0.046 ± 0.064.
In the case of ENVFHPVECSYCHSESPMGFRYRCQQCHNYQLCQDCFWRGHAGGSHSNQHQMKEYTSWKS, the abundance fitness is -0.008 ± 0.061.
In the case of ENVFHPVECSYCHSESEMGFRYRCQQCHNYQLCQDCFWRGHAGGSHSNQHQMKEYTSWKS, the abundance fitness came to 0.116 ± 0.095.
Consider ENVFHPVECSYCHSESKMGFRYRCQQCHNYQLCQDCFWRGHAGGSHSNQHQMKEYTSWKS, for which the abundance fitness came out at 0.136 ± 0.066.
For ENVFHPVECSYCHSESWMGFRYRCQQCHNYQLCQDCFWRGHAGGSHSNQHQMKEYTSWKS, the abundance fitness is -0.084 ± 0.071.
On to ENVFHPVECSYCHSESVMGFRYRCQQCHNYQLCQDCFWRGHAGGSHSNQHQMKEYTSWKS, for which the abundance fitness was found to be 0.004 ± 0.059.
For ENVFHPVECSYCHSESHMGFRYRCQQCHNYQLCQDCFWRGHAGGSHSNQHQMKEYTSWKS, the abundance fitness amounted to 0.116 ± 0.077.
On to ENVFHPVECSYCHSESRMGFRYRCQQCHNYQLCQDCFWRGHAGGSHSNQHQMKEYTSWKS, for which the abundance fitness came out at 0.007 ± 0.046.
Turning to ENVFHPVECSYCHSESGMGFRYRCQQCHNYQLCQDCFWRGHAGGSHSNQHQMKEYTSWKS, the abundance fitness came to 0.085 ± 0.047.
In the case of ENVFHPVECSYCHSESFMGFRYRCQQCHNYQLCQDCFWRGHAGGSHSNQHQMKEYTSWKS, the abundance fitness is -0.002 ± 0.076.
Turning to ENVFHPVECSYCHSESQMGFRYRCQQCHNYQLCQDCFWRGHAGGSHSNQHQMKEYTSWKS, the abundance fitness is -0.019 ± 0.086.
As to ENVFHPVECSYCHSESIMGFRYRCQQCHNYQLCQDCFWRGHAGGSHSNQHQMKEYTSWKS, the abundance fitness was 0.045 ± 0.088.
For ENVFHPVECSYCHSEAMMGFRYRCQQCHNYQLCQDCFWRGHAGGSHSNQHQMKEYTSWKS, the abundance fitness is -0.049 ± 0.059.
As to ENVFHPVECSYCHSEGMMGFRYRCQQCHNYQLCQDCFWRGHAGGSHSNQHQMKEYTSWKS, the abundance fitness is -0.128 ± 0.056.
With ENVFHPVECSYCHSEYMMGFRYRCQQCHNYQLCQDCFWRGHAGGSHSNQHQMKEYTSWKS the figure was -0.304 ± 0.069; with ENVFHPVECSYCHSEDMMGFRYRCQQCHNYQLCQDCFWRGHAGGSHSNQHQMKEYTSWKS, 0.012 ± 0.085.
For the variant ENVFHPVECSYCHSEPMMGFRYRCQQCHNYQLCQDCFWRGHAGGSHSNQHQMKEYTSWKS, the abundance fitness is -0.029 ± 0.059.
For the variant ENVFHPVECSYCHSETMMGFRYRCQQCHNYQLCQDCFWRGHAGGSHSNQHQMKEYTSWKS, the abundance fitness came to 0.014 ± 0.062.
As for ENVFHPVECSYCHSEVMMGFRYRCQQCHNYQLCQDCFWRGHAGGSHSNQHQMKEYTSWKS, the abundance fitness stood at 0.009 ± 0.055.
Regarding ENVFHPVECSYCHSELMMGFRYRCQQCHNYQLCQDCFWRGHAGGSHSNQHQMKEYTSWKS, the abundance fitness turned out to be 0.023 ± 0.045.
The same measure for ENVFHPVECSYCHSEMMMGFRYRCQQCHNYQLCQDCFWRGHAGGSHSNQHQMKEYTSWKS: -0.041 ± 0.073; for ENVFHPVECSYCHSEIMMGFRYRCQQCHNYQLCQDCFWRGHAGGSHSNQHQMKEYTSWKS: 0.148 ± 0.055.
With ENVFHPVECSYCHSEQMMGFRYRCQQCHNYQLCQDCFWRGHAGGSHSNQHQMKEYTSWKS the figure was 0.043 ± 0.089.
As to ENVFHPVECSYCHSEEMMGFRYRCQQCHNYQLCQDCFWRGHAGGSHSNQHQMKEYTSWKS, the abundance fitness was -0.033 ± 0.067.
As to ENVFHPVECSYCHSEKMMGFRYRCQQCHNYQLCQDCFWRGHAGGSHSNQHQMKEYTSWKS, the abundance fitness was 0.001 ± 0.08.
As to ENVFHPVECSYCHSENMMGFRYRCQQCHNYQLCQDCFWRGHAGGSHSNQHQMKEYTSWKS, the abundance fitness was -0.011 ± 0.074.
ENVFHPVECSYCHSEHMMGFRYRCQQCHNYQLCQDCFWRGHAGGSHSNQHQMKEYTSWKS: the abundance fitness is -0.206 ± 0.083.
Consider ENVFHPVECSYCHSERMMGFRYRCQQCHNYQLCQDCFWRGHAGGSHSNQHQMKEYTSWKS, for which the abundance fitness is 0.06 ± 0.046.
As for ENVFHPVECSYCHSEWMMGFRYRCQQCHNYQLCQDCFWRGHAGGSHSNQHQMKEYTSWKS, the abundance fitness is -0.208 ± 0.057.
Regarding ENVFHPVECSYCHSEFMMGFRYRCQQCHNYQLCQDCFWRGHAGGSHSNQHQMKEYTSWKS, the abundance fitness is -0.084 ± 0.054.
ENVFHPVECSYCHSECMMGFRYRCQQCHNYQLCQDCFWRGHAGGSHSNQHQMKEYTSWKS: the abundance fitness was -0.092 ± 0.063.
As to ENVFHPVECSYCHSRSMMGFRYRCQQCHNYQLCQDCFWRGHAGGSHSNQHQMKEYTSWKS, the abundance fitness worked out at 0.054 ± 0.054.
In the case of ENVFHPVECSYCHSNSMMGFRYRCQQCHNYQLCQDCFWRGHAGGSHSNQHQMKEYTSWKS, the abundance fitness was found to be 0.03 ± 0.11.
The same measure for ENVFHPVECSYCHSWSMMGFRYRCQQCHNYQLCQDCFWRGHAGGSHSNQHQMKEYTSWKS: -0.104 ± 0.072; for ENVFHPVECSYCHSMSMMGFRYRCQQCHNYQLCQDCFWRGHAGGSHSNQHQMKEYTSWKS: 0.074 ± 0.08; for ENVFHPVECSYCHSSSMMGFRYRCQQCHNYQLCQDCFWRGHAGGSHSNQHQMKEYTSWKS: 0.03 ± 0.049.
For the variant ENVFHPVECSYCHSPSMMGFRYRCQQCHNYQLCQDCFWRGHAGGSHSNQHQMKEYTSWKS, the abundance fitness turned out to be 0.1 ± 0.09.
As to ENVFHPVECSYCHSTSMMGFRYRCQQCHNYQLCQDCFWRGHAGGSHSNQHQMKEYTSWKS, the abundance fitness stood at 0.034 ± 0.042.
For the variant ENVFHPVECSYCHSYSMMGFRYRCQQCHNYQLCQDCFWRGHAGGSHSNQHQMKEYTSWKS, the abundance fitness is -0.23 ± 0.091.
In the case of ENVFHPVECSYCHSQSMMGFRYRCQQCHNYQLCQDCFWRGHAGGSHSNQHQMKEYTSWKS, the abundance fitness is 0.079 ± 0.062.
